The results in this text go back to patent publication US20150098945A1 (Daiichi Sankyo, published 2015).

The test concerns the target T1, human ROBO2 (pCI-hROBO2-transfected HEK293 cells) (human).
T1 chain: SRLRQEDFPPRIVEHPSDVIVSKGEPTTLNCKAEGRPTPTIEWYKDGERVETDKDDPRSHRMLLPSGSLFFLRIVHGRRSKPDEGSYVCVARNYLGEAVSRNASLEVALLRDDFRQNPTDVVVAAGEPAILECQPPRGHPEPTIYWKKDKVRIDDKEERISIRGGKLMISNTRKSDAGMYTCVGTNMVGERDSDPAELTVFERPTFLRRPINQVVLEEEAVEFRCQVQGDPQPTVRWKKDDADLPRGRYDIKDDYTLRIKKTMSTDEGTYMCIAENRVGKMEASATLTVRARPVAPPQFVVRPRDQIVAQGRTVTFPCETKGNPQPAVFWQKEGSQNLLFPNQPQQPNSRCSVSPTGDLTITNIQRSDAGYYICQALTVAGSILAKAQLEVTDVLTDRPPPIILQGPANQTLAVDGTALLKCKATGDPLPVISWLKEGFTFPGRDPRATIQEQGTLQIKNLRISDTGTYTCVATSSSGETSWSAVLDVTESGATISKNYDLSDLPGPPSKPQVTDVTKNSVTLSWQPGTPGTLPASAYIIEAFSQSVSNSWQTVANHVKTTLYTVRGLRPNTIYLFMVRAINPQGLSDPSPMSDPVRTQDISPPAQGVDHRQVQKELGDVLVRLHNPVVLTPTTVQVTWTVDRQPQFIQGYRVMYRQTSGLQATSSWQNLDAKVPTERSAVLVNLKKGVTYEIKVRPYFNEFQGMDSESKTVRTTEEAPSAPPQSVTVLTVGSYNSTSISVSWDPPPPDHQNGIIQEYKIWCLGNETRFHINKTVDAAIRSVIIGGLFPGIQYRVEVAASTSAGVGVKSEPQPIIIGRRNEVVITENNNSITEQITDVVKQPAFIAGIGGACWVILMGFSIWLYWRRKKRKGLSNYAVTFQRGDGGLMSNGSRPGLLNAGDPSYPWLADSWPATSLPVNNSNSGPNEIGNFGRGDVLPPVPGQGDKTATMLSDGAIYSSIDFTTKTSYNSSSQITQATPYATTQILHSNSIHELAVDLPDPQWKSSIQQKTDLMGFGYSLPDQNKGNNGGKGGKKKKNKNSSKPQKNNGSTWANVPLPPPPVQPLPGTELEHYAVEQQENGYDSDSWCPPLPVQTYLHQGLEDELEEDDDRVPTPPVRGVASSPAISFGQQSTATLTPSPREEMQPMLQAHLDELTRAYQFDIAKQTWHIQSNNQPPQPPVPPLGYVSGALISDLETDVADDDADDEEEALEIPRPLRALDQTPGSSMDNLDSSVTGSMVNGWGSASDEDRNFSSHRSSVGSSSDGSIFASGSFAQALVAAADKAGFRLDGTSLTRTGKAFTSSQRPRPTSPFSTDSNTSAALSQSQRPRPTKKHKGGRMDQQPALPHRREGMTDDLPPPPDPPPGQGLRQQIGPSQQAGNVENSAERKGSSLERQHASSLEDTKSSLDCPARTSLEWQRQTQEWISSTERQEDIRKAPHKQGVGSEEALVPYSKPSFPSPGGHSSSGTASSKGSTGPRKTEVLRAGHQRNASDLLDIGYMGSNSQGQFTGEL
Put plainly: flow cytometry, HEK293 cells transfected with pCI-hROBO2, anti-mouse IgG FITC; control histogram IgG. The procedure:
HEK293 cells were inoculated at a concentration of 1.2×10⁶ cells/dish or 1.5×10⁶ cells/dish to a 60-mm dish (manufactured by Corning Inc.) and cultured overnight in a DMEM medium containing 10% FBS at 37° C. under 5% CO₂ conditions. On the next day, the HEK293 cells were transfected with pCI-hROBO4, pCI-FLAG-hROBO1, pCI-hROBO2, or pCI-hROBO3 using FuGENE6 Transfection Reagent and further cultured overnight at 37° C. under 5% CO₂ conditions. On the next day, the expression vector-transfected cells were treated with TrypLE Express (manufactured by Life Technologies Corp.), washed with PBS containing 5% FBS, and then suspended in PBS containing 5% FBS. The obtained cell suspension was used in flow cytometry analysis.
Each cell suspension prepared in 4)-4-1 was centrifuged, and the supernatant was removed. […] Data was analyzed using Flowjo. The histogram of FITC fluorescence intensity was prepared. The antibody was determined to bind in a specific manner when the histogram of MAb1 was shifted to a stronger fluorescence intensity region compared with the histogram of the negative control Mouse IgG1 or Mouse IgG2a. […]

B1: anti-ROBO4 mouse monoclonal antibody MAb1 (antibody, mouse IgG1, V domains shown)
VH: EVQLVESGGGLVKPGGSLKLSCAASGFTFSTYAMSWVRQTPEKRLEWVATISNGGTYTYYPDSVKGRFTISRDNAENTLYLQMSSLRSEDTAMYFCARLIYYDYLDYWGHGTTLTVSS
VL: DAVMTQTPLSLPVSLGDQASISCRSSQSLENSNGNTYLNWYFQKPGQSPQLLIYRVSNRFSGVLDRFSGSGSGTDFTLKISRVEAEDFGVYFCLQVTHVPWTFGGGTKLEIKR
notes: Mouse IgG1 (gamma1), kappa light chain, purified from hybridoma supernatant; also called parent antibody MAb1
For the molecule B1, the binding result is on record as “no binding (tested: 10 µg/mL)”.
